Assay results from paper PMC3081598 (Journal of the American Chemical Society, 2011).

Tests used:
Assay in all cases: fluorescence polarisation
[1] = biological target: GLhelix-4, redesigned RGS14 GoLoco motif peptide (UniProt O08773)
[2] = biological target: GLhelix-4 with Trp 534 mutated to alanine (UniProt O08773)
[3] = biological target: heterotrimeric G-protein alpha subunit Gαi1 in its inactive, GDP-complexed state (UniProt P63096 30-354)
heterotrimeric G-protein alpha subunit Gαi1 in its inactive, GDP-complexed state (UniProt P63096 30-354), sequence (P63096 30-354, one chain of several): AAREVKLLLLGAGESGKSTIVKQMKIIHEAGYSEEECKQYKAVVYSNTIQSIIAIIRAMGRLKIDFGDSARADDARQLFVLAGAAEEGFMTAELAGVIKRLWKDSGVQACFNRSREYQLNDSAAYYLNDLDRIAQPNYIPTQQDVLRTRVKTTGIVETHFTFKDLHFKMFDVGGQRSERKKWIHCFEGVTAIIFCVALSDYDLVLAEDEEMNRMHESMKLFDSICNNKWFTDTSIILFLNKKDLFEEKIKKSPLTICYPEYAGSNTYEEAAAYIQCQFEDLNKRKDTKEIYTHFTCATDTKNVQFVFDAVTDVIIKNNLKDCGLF

heterotrimeric G-protein alpha subunit Gαi1 in its inactive, GDP-complexed state (from UniProt P63096 30-354) (natural protein), sequence (P63096 30-354, one chain of several): as above

Row | Kd [1] [nM] | Kd [2] [nM] | Kd [3] [nM] | Molecule
1 | 810 | 1400 |  | heterotrimeric G-protein alpha subunit Gαi1 in its inactive, GDP-complexed state (from UniProt P63096 30-354) (natural protein)
2 |  |  | 95 | DIEGLVELLNRVQSSGAHDQRGLLRKEDLVLPEFLQ [RGS14 GoLoco motif peptide (wildtype, 36 residues)]
